Assay [1] concerns the target T1, Programmed Death 1 (PD-1) Fc chimera (R&D Systems, Catalog # 1086-PD-050) (human, UniProt Q15116 25-167).
T1 construct: Bought reagent; not shown: Fc part of the bought chimera (captured by anti-human Fc tips)
Description: BLI (Octet), PD-1 Fc captured on anti-human Fc tips, TPP-999 at 10 µg/mL in PBS as analyte. On the procedure:
(§1) Final dissociation in PBS was performed in the last step on the Bio-Layer Interferometry (BLI) data.

For assay [2], the target named is T1, Programmed Death 1 (PD-1) Fc chimera …. Description: BLI (Octet), PD-1 Fc captured on anti-human Fc tips, TPP-993 in PBS as analyte. The protocol: as §1
Background: Biolayer interferometry detects binding as a change in optical thickness at a sensor tip.

The target is the same in assay [3]. Description: BLI (Octet), PD-1 Fc captured on anti-human Fc tips, TPP-1001 at 10 µg/mL in PBS as analyte. On the procedure:
as §1

For assay [4] the target is unchanged. The experiment in a line: BLI (Octet Red), TPP-985 loaded on anti-human IgG Fc tips, DLAT 10 µg/mL bound first, then PD-1 Fc. The protocol:
(§2) Antibodies and antibody fusions were diluted to 16 μg/mL in PBS and loaded onto anti-human IgG Fc tips (ForteBio, Catalog # 18-5064). Human DLAT recombinant protein (ProSpec, Catalog # ENZ-082) was diluted into PBS to 10 μg/mL. […] Finally, a dissociation step in PBS was performed to determine dissociation from the bound antibodies.

Assay [5] has the same target. The experiment in a line: BLI (Octet Red), TPP-990 loaded on anti-human IgG Fc tips, DLAT 10 µg/mL bound first, then PD-1 Fc. The protocol: as §2
Assay [6] has the same target. Description: BLI, PD-1 Fc loaded on anti-human IgG tips, fusion as analyte, dissociation in PBS.

T1 sequence (Q15116 25-167, change not shown): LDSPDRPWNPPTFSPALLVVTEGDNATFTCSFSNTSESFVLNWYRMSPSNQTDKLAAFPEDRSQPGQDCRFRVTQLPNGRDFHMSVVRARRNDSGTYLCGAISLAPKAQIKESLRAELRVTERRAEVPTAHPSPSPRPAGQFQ

B1: TPP-999 (PD2 with PD-L1 fused to the C-terminus of the light chain) (Fab)
heavy: EVQLVESGGGLVKPGGSLRLSCAASGFTFGSYSMTWVRQAPGKGLEWVSFISTVSTYIYYPDSVKGRFTISRDNAKNSLYLQMNSLRAEDTAVYYCARVSGRGSAARDGEKGTYYYYMDVWGKGTTVTVSSASTKGPSVFPLAPSSKSTSGGTAALGCLVKDYFPEPVTVSWNSGALTSGVHTFPAVLQSSGLYSLSSVVTVPSSSLGTQTYICNVNHKPSNTKVDKRVEPKSC
light: SSELTQDPAVSVALGQTVTITCQGDSLRSYYASWYQQKPGQAPVLVIFGKNNRPSGIPDRFSGSRSGNTASLTITGAQAEDEADYFCDSRDSSANHWVFGGGTKLTVLQPKAAPSVTLFPPSSEELQANKATLVCLISDFYPGAVTVAWKADSSPVKAGVETTTPSKQSNNKYAASSYLSLTPEQWKSHKSYSCQVTHEGSTVEKTVAPTECSGGSSRSSSSGGGGSGGGGFTVTVPKDLYVVEYGSNMTIECKFPVEKQLDLAALIVYWEMEDKNIIQFVHGEEDLKVQHSSYRQRARLLKDQLSLGNAALQITDVKLQDAGVYRCMISYGGADYKRITVKVNA
notes: Fab fusion with the human PD-L1 variable-like domain
Consider B1, for which, in assay [1], the binding result is “binds”.

B2: TPP-993 (PD2 Fab having no PD-L1 domain and no linker) (Fab)
heavy: EVQLVESGGGLVKPGGSLRLSCAASGFTFGSYSMTWVRQAPGKGLEWVSFISTVSTYIYYPDSVKGRFTISRDNAKNSLYLQMNSLRAEDTAVYYCARVSGRGSAARDGEKGTYYYYMDVWGKGTTVTVSSASTKGPSVFPLAPSSKSTSGGTAALGCLVKDYFPEPVTVSWNSGALTSGVHTFPAVLQSSGLYSLSSVVTVPSSSLGTQTYICNVNHKPSNTKVDKRVEPKSC
light: SSELTQDPAVSVALGQTVTITCQGDSLRSYYASWYQQKPGQAPVLVIFGKNNRPSGIPDRFSGSRSGNTASLTITGAQAEDEADYFCDSRDSSANHWVFGGGTKLTVLQPKAAPSVTLFPPSSEELQANKATLVCLISDFYPGAVTVAWKADSSPVKAGVETTTPSKQSNNKYAASSYLSLTPEQWKSHKSYSCQVTHEGSTVEKTVAPTECS
Consider B2, for which, in assay [2], the binding result is listed as “no binding (tested: 10 µg/mL)”.

B3: TPP-1001 (PD2 with PD-L1 fused to the N-terminus of the light chain) (Fab)
heavy: EVQLVESGGGLVKPGGSLRLSCAASGFTFGSYSMTWVRQAPGKGLEWVSFISTVSTYIYYPDSVKGRFTISRDNAKNSLYLQMNSLRAEDTAVYYCARVSGRGSAARDGEKGTYYYYMDVWGKGTTVTVSSASTKGPSVFPLAPSSKSTSGGTAALGCLVKDYFPEPVTVSWNSGALTSGVHTFPAVLQSSGLYSLSSVVTVPSSSLGTQTYICNVNHKPSNTKVDKRVEPKSC
light: FTVTVPKDLYVVEYGSNMTIECKFPVEKQLDLAALIVYWEMEDKNIIQFVHGEEDLKVQHSSYRQRARLLKDQLSLGNAALQITDVKLQDAGVYRCMISYGGADYKRITVKVNAGGSSRSSSSGGGGSGGGGSSELTQDPAVSVALGQTVTITCQGDSLRSYYASWYQQKPGQAPVLVIFGKNNRPSGIPDRFSGSRSGNTASLTITGAQAEDEADYFCDSRDSSANHWVFGGGTKLTVLQPKAAPSVTLFPPSSEELQANKATLVCLISDFYPGAVTVAWKADSSPVKAGVETTTPSKQSNNKYAASSYLSLTPEQWKSHKSYSCQVTHEGSTVEKTVAPTECS
notes: as for B1
On to B3, for which, in assay [3], the binding result is recorded as “binds”.

B4: TPP-985, human IgG2/4 PD5 antibody (antibody)
heavy: QLQLQESGPGLVKPSETLSLTCIVSGGSISRNSYYWGWIRQPPGKGLEWIGSIVYSGSTYHQPSLKSRVTIFLDTSKNQFFLKLTSVTAADTAVYYCARGTRATTWPPPIGYWGQGTLVTVSSASTKGPSVFPLAPCSRSTSESTAALGCLVKDYFPEPVTVSWNSGALTSGVHTFPAVLQSSGLYSLSSVVTVPSSNFGTQTYTCNVDHKPSNTKVDKTVERKCCVECPPCPAPPVAGPSVFLFPPKPKDTLMISRTPEVTCVVVDVSQEDPEVQFNWYVDGVEVHNAKTKPREEQFNSTYRVVSVLTVLHQDWLNGKEYKCKVSNKGLPSSIEKTISKAKGQPREPQVYTLPPSQEEMTKNQVSLTCLVKGFYPSDIAVEWESNGQPENNYKTTPPVLDSDGSFFLYSRLTVDKSRWQEGNVFSCSVMHEALHNHYTQKSLSLSLGK
light: QSVLTQPPSVSAAPGQKVTVSCFGSSSNIGNYFASWYQQLPGAAPRLLIYGNNERPSGIPDRFSGSKSGTSATLVITGLQTGDEAAYYCATWDSSLSAVVFGGGTKLTVLGQPKANPTVTLFPPSSEELQANKATLVCLISDFYPGAVTVAWKADGSPVKAGVETTKPSKQSNNKYAASSYLSLTPEQWKSHRSYSCQVTHEGSTVEKTVAPTECS
notes: also called PD5_IgG2-4; anti-DLAT IgG2-4 antibody with no PD-L1 variable-like domain
For B4, the binding result in assay [4] is “no binding (tested: 12.5 µg/mL)”.

B5: TPP-990, human IgG2/4 PD5 antibody, C-terminus PD-L1 LC (antibody)
heavy: QLQLQESGPGLVKPSETLSLTCIVSGGSISRNSYYWGWIRQPPGKGLEWIGSIVYSGSTYHQPSLKSRVTIFLDTSKNQFFLKLTSVTAADTAVYYCARGTRATTWPPPIGYWGQGTLVTVSSASTKGPSVFPLAPCSRSTSESTAALGCLVKDYFPEPVTVSWNSGALTSGVHTFPAVLQSSGLYSLSSVVTVPSSNFGTQTYTCNVDHKPSNTKVDKTVERKCCVECPPCPAPPVAGPSVFLFPPKPKDTLMISRTPEVTCVVVDVSQEDPEVQFNWYVDGVEVHNAKTKPREEQFNSTYRVVSVLTVLHQDWLNGKEYKCKVSNKGLPSSIEKTISKAKGQPREPQVYTLPPSQEEMTKNQVSLTCLVKGFYPSDIAVEWESNGQPENNYKTTPPVLDSDGSFFLYSRLTVDKSRWQEGNVFSCSVMHEALHNHYTQKSLSLSLGK
light: QSVLTQPPSVSAAPGQKVTVSCFGSSSNIGNYFASWYQQLPGAAPRLLIYGNNERPSGIPDRFSGSKSGTSATLVITGLQTGDEAAYYCATWDSSLSAVVFGGGTKLTVLGQPKANPTVTLFPPSSEELQANKATLVCLISDFYPGAVTVAWKADGSPVKAGVETTKPSKQSNNKYAASSYLSLTPEQWKSHRSYSCQVTHEGSTVEKTVAPTECSGGSSRSSSSGGGGSGGGGFTVTVPKDLYVVEYGSNMTIECKFPVEKQLDLAALIVYWEMEDKNIIQFVHGEEDLKVQHSSYRQRARLLKDQLSLGNAALQITDVKLQDAGVYRCMISYGGADYKRITVKVNA
notes: Antibody fused with the human PD-L1 variable-like domain
Regarding B5, the binding result in assay [5] is recorded as “no binding (tested: 12.5 µg/mL)”.

B6: TPP-1986 (murine IgG1 Fc Silent, N-terminus_PDL1_LC_PD5) (antibody)
heavy: QLQLQESGPGLVKPSETLSLTCIVSGGSISRNSYYWGWIRQPPGKGLEWIGSIVYSGSTYHQPSLKSRVTIFLDTSKNQFFLKLTSVTAADTAVYYCARGTRATTWPPPIGYWGQGTLVTVSSAKTTPPSVYPLAPGSAAQTNSMVTLGCLVKGYFPEPVTVTWNSGSLSSGVHTFPAVLQSDLYTLSSSVTVPSSTWPSQTVTCNVAHPASSTKVDKKIVPRDCGCKPCICTVPEQSSVFIFPPKPKDVLMISLTPKVTCVVVDISKDDPEVQFSWFVDDVEVHTAQTKPREEQINSTFRSVSELPILHQDWLNGKEFKCRVNSAAFPAPIEKTISKTKGRPKAPQVYTIPPPKEQMAKDKVSLTCMITNFFPEDITVEWQWNGQPAENYKNTQPIMDTDGSYFVYSKLNVQKSNWEAGNTFTCSVLHEGLHNHHTEKSLSHSPGK
light: FTVTVPKDLYVVEYGSNMTIECKFPVEKQLDLAALIVYWEMEDKNIIQFVHGEEDLKVQHSSYRQRARLLKDQLSLGNAALQITDVKLQDAGVYRCMISYGGADYKRITVKVNAGGSSRSSSSGGGGSGGGGQSVLTQPPSVSAAPGQKVTVSCFGSSSNIGNYFASWYQQLPGAAPRLLIYGNNERPSGIPDRFSGSKSGTSATLVITGLQTGDEAAYYCATWDSSLSAVVFGGGTKLTVLGQPKSSPSVTLFPPSSEELETNKATLVCTITDFYPGVVTVDWKVDGTPVTQGMETTQPSKQSNNKYMASSYLTLTARAWERHSSYSCQVTHEGHTVEKSLSRADCS
notes: also called huPDL1; Human PDL1_Mouse PD5
Consider B6, for which, in assay [6], the binding result is “binds”.

The values above are taken from patent publication US20240026032A1 (Alexion, published 2024).
